Reference: patent US5843749, “Ehk and Ror tyrosine kinases” (Regeneron Pharmaceuticals, Inc., dated 1998)

Assays:
[1] = molecular target: rat trkB (full-length, pCMX-trkB or pLTR-trkB) (rat, UniProt Q63604); test: DSS cross-linking of 125I-NGF to COS cells transfected with pCMX-trkB
Method: COS-M5 cells were transiently transfected with either the pCMX-LNGFR, pCMX-trkB, or control vector (pCMX) by the DEAE-dextran transfection protocol. Briefly, COS-M5 cells were plated at a density of 1.5 ×10^6 cells per 100 mm plate 24 hours prior to transfection. For transfection, the cells were cultured in serum-free DMEM containing 400 μg/ml of DEAE-dextran, 1 μM chloroquine, 2 mM glutamine, 20 μg/ml insulin, 5 μg/ml transferrin, 33 nM sodium selenite, and 5 μg of the appropriate DNA for 3 hours and 15 minutes at 37° C. in an atmosphere of 5% CO2. The transfection media was aspirated and replaced with phosphate-buffered saline with 10% DMSO for 2 min. Following this DMSO "shock", the COS-M5 cells were placed into DMEM with 10% FBS, 1% each of penicillin and streptomycin, and 2 mM glutamine for 48 hours.
Cells were harvested in phosphate-buffered saline containing 1 mM EDTA, 1 mg/ml glucose and 25 mM HEPES (PBS-versene) and resuspended at an appropriate density (generally 1 ×10^6 cells per ml) in ice-cold binding buffer A (PBS containing 1 mg/ml each of BSA and glucose). pCMX-trkB or pCMX vector transfected COS-M5 cells (4 ×10^5 cells) were incubated on ice with ^125I-labeled neurotrophins (final concentration estimated to be between 0.1 and 0.25 nM) for 90 minutes in the absence or presence of unlabeled NGF, BDNF or NT-3 (see FIGS. 1 and 3). […]

[2] = molecular target: rat trkB (full-length, pCMX-trkB or pLTR-trkB) (rat) (UniProt Q63604)
[3] = molecular target: human low affinity nerve growth factor receptor (LNGFR) (human, UniProt P08138); test: competition of cross-linking, competitor 125I-NT-3, pCMX-LNGFR COS cells

B1: Murine 2.5S NGF (ligand)
chain: SSTHPVFHMGEFSVCDSVSVWVGDKTTATDIKGKEVTVLAEVNINNSVFRQYFFETKCRASNPVESGCRGIDSKHWNSYCTTTHTFVKALTTDEKQAAWRFIRIDTACVCVLSRKATR
modifications: radioiodinated (125I, lactoperoxidase method) where used as the labeled ligand
- binding result [1]: no binding

B2: brain derived neurotrophic factor (human BDNF, produced in CHO cells) (ligand)
chain: HSDPARRGELSVCDSISEWVTAADKKTAVDMSGGTVTVLEKVPVSKGQLKQYFYETKCNPMGYTKEGCRGIDKRHWNSQCRTTQSYVRALTMDSKKRIGWRFIRIDTSCVCTLTIKRGR
modifications: radioiodinated (125I, lactoperoxidase method) where used as the labeled ligand
- dose-response survival assay of trkB-expressing NIH3T3 cells, concentration at which activity is obvious [2]: 0.5 to 5 pM
- binding result [3]: binds

B3: neurotrophin-3 (human NT-3, produced in CHO cells) (ligand)
chain: YAEHKSHRGEYSVCDSESLWVTDKSSAIDIRGHQVTVLGEIKTGNSPVKQYFYETRCKEARPVKNGCRGIDDKHWNSQCKTSQTYVRALTSENNKLVGWRWIRIDTSCVCALSRKIGRT
modifications: radioiodinated (125I, lactoperoxidase method) where used as the labeled ligand
- dose-response survival assay of trkB-expressing NIH3T3 cells, concentration at which effects are discernible [2]: 50 pM
- dose-response survival assay of trkB-expressing NIH3T3 cells, effectiveness against BDNF [2]: < 10 fold
- binding result [3]: binds
